Experimental findings from patent US20200405868A1, “GEL-FORMING POLYPEPTIDES” (priority 2018, published 2020) are described below.

For assay [1], the target named is FITC-labled GnRH molecule (a peptide) (UniProt P01148). Nature of the assay: Centricon filter release assay: FITC-GnRH that passed into the lower chamber with carrier at 1 mg/100 ml (control without carrier 72.50).
Assay [2] has the same target. The assay is described as follows: Centricon filter release assay: FITC-GnRH that passed into the lower chamber with carrier at 1 mg/10 ml (control without carrier 72.50); a lower reading means more retention with the carrier.

The star is where a group is joined. Palmitoyl = CCCCCCCCCCCCCCCC(=O)*

B1: SEQ ID NO:119, Pal-SSPHSY-NH2, gel-forming peptide (peptide)
peptide: Palmitoyl-SSPHSY-NH2
SMILES: CCCCCCCCCCCCCCCC(=O)N[C@@H](CO)C(=O)N[C@@H](CO)C(=O)N1CCC[C@H]1C(=O)N[C@@H](Cc1c[nH]cn1)C(=O)N[C@@H](CO)C(=O)N[C@@H](Cc1ccc(O)cc1)C(N)=O
Consider B1, for which the figures for the Fluorescent Reading (average of duplicates) in assay [1] and in assay [2] were 58.4 and 9, respectively.
